Assay results: publication PMC9231606, “Membrane insertion mechanism of the caveola coat protein Cavin1” (Proceedings of the National Academy of Sciences of the …, 2022)

Biological target: the molecule itself
Test: mass photometry; sample 25 to 100 nM in a gasket well on glass coverslips, acquisition for 60 s; mass from contrast comparison with bovine serum albumin calibrants

B1: Cavin1 (1–190) (domain or fragment, UniProt O54724 1-190, looked up)
chain: MEDVTLHIVERPYSGFPDASSEGPEPTQGEARATEEPSGTGSDELIKSDQVNGVLVLSLLDKIIGAVDQIQLTQAQLEERQAEMEGAVQSIQGELSKLGKAHATTSNTVSKLLEKVRKVSVNVKTVRGSLERQAGQIKKLEVNEAELLRRRNFKVMIYQDEVKLPAKLSVSKSLKESEALPEKEGDELGE
notes: Cavin1, residues 1 to 190 (DR1 1–43, HR1 45–155, DR2 156–190); By mass photometry it was detected as trimers and also as monomers; also called N-terminal part (residues 1 to 190); DR1–HR1–DR2; source: E. coli Rosetta pLysS or BL21(DE3)pLysS, purified (TALON Superflow, gel filtration on Sephacryl S-300 HR)
stoichiometry N: 3
